Data taken from paper PMC8215223.
Changes are numbered by the printed parent chain. Names and notes keep the numbering of the source.

T1: tubulin (endogenous), P07437
T1 chain: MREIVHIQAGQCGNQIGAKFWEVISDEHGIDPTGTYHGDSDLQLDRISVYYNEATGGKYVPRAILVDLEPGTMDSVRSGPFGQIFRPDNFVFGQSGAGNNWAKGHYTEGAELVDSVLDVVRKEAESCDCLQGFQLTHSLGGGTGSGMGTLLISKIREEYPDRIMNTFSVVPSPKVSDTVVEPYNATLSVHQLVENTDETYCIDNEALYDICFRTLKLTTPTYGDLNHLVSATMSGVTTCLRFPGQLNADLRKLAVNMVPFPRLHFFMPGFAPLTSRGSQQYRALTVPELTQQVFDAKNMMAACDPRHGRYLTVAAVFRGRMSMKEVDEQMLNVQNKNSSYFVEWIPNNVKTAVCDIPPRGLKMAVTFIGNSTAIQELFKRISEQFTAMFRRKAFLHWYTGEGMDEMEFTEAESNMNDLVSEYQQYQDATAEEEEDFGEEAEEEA

B1: GFP-WT-HOOK3, Q86VS8 S238A (protein)
chain: MFSVESLERAELCESLLTWIQTFNVDAPCQTVEDLTNGVVMAQVLQKIDPAYFDENWLNRIKTEVGDNWRLKISNLKKILKGILDYNHEILGQQINDFTLPDVNLIGEHSDAAELGRMLQLILGCAVNCEQKQEYIQAIMMMEESVQHVVMTAIQELMSKESPVSAGNDAYVDLDRQLKKTTEELNEALSAKEEIAQRCHELDMQVAALQEEKSSLLAENQVLMERLNQSDSIEDPNAPAGRRHLQLQTQLEQLQEETFRLEAAKDDYRIRCEELEKEISELRQQNDELTTLADEAQSLKDEIDVLRHSSDKVSKLEGQVESYKKKLEDLGDLRRQVKLLEEKNTMYMQNTVSLEEELRKANAARSQLETYKRQVVELQNRLSEESKKADKLDFEYKRLKEKVDSLQKEKDRLRTERDSLKETIEELRCVQAQEGQLTTQGLMPLGSQESSDSLAAEIVTPEIREKLIRLQHENKMLKLNQEGSDNEKIALLQSLLDDANLRKNELETENRLVNQRLLEVQSQVEELQKSLQDQGSKAEDSVLLKKKLEEHLEKLHEANNELQKKRAIIEDLEPRFNNSSLKIEELQEALRKKEEEMKQMEERYKKYLEKAKSVIRTLDPKQNQGAAPEIQALKNQLQERDRLFHSLEKEYEKTKSQREMEEKYIVSAWYNMGMTLHKKAAEDRLASTGSGQSFLARQRQATSSRRSYPGHVQPATAR
B2: GFP-WT-HOOK3, Q86VS8 S238A; S707A (protein)
chain: B1 chain with S707A
B3: GFP-WT-HOOK3, Q86VS8 S238E; S707E (protein)
chain: B1 chain with A238E, S707E
B4: GFP-WT-HOOK3, Q86VS8 S707E (protein)
chain: B1 chain with A238S, S707E
B5: GFP-WT-HOOK3, Q86VS8 S238E (protein)
chain: B1 chain with A238E
B6: GFP-WT-HOOK3, Q86VS8 S707A (protein)
chain: B1 chain with A238S, S707A

Target: T1, tubulin (endogenous), P07437
Assay: coIP (co-immunoprecipitation, blot band intensity quantified)
Conditions: chain shown with the change; HeLa cells, 100 ng/mL nocodazole for 16 hr (+); parent: est. 7.8; read off a plot

Row | Binder | response [A.U]
1 | B1 | 8.8
2 | B2 | 19
3 | B3 | 9
4 | B4 | 12
5 | B5 | 20
6 | B6 | 8.5
